Results as given in patent US20250043302A1, “MUTATED HYDROXYPHENYLPYRUVATE DIOXYGENASE POLYPEPTIDE, AND CODING GENE AND USE THEREOF” (BEIJING DABEINONG BIOTECHNOLOGY CO., LTD., priority 2021, published 2025).
Where a chain is given by its changes, count along the chain named. Numbers in names are those of the source.

How the values were obtained:
Format in all cases: in vivo
[1] = tested on: Arabidopsis thaliana T1 plants; test: Mesotrione tolerance of transgenic Arabidopsis thaliana T1 plants (spray, bleached leaf area grade, damage score); set-up: Scores: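 damage score 0-100 computed as Σ(N×S)/(T×M)×100 over grades 0-3 with higher meaning more damage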; details: Arabidopsis thaliana T1 plants; for Grade 0 (classification and statistics of the grade of pesticide damage; number of plants) / Grade 1 (classification and statistics of the grade of pesticide damage; number of plants) / Grade 2 (classification and statistics of the grade of pesticide damage; number of plants) / Grade 3 (classification and statistics of the grade of pesticide damage; number of plants): 16 plants
Outline: (§1)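 Damage graded 0–3 from the proportion of bleached leaf area 7 days after spraying. Plants were glufosinate-selected T1 lines, 18 days after sowing, plus vector and wild-type controls. Rates: mesotrione 52.5–420, isoxaflutole 35–280, topramezone 25–200 g ai/ha, with water (0×).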

[2] = tested on: Arabidopsis thaliana T1 plants; test: Isoxaflutole tolerance of transgenic Arabidopsis thaliana T1 plants (spray, bleached leaf area grade, damage score); set-up: Scores (pesticide damage): scale not given here; details: spray, Arabidopsis thaliana T1 plants; for Classification and statistics of the grade of pesticide damage: Grade 0 (number of plants) / Classification and statistics of the grade of pesticide damage: Grade 1 (number of plants) / Classification and statistics of the grade of pesticide damage: Grade 2 (number of plants) / Classification and statistics of the grade of pesticide damage: Grade 3 (number of plants): 16 plants
Outline: as §1

[3] = tested on: Arabidopsis thaliana T1 plants; test: Topramezone tolerance of transgenic Arabidopsis thaliana T1 plants (spray, bleached leaf area grade, damage score); details: 7 DAT, Table 4; for Classification and statistics of the grade of pesticide damage: Grade 0 / Classification and statistics of the grade of pesticide damage: Grade 1 / Classification and statistics of the grade of pesticide damage: Grade 2 / Classification and statistics of the grade of pesticide damage: Grade 3: number of plants; for Scores: pesticide damage score 0-100
Outline: as §1

[4] = isoxaflutole 35 g ai/ha (0.5x field concentration)
[5] = isoxaflutole 70 g ai/ha (1x field concentration)

B1: MsHPPD-02: nucleotide sequence encoding wild-type Medicago sativa HPPD; vector DBN11734 (nucleic acid)
DNA: ATGGCTATTGAAACCGAAACACAAACTCAGACTGGATTTAAACTGGTAGGGTTCAAGAATTTCGTTAGGGCTAATCCCAAGTCTGATCGTTTTAAGGTCAAGAGGTTCCACCACGTGGAGTTCTGGTGCACTGATGCAACCAACACGGCGCGGCGTTTTTCACATGGTCTTGGAATGCCTATTGTTGCAAAATCCGACCTCTCCACGGGGAACCAAACACACGCCTCTTACCTGCTACGGAGTGGTGACTTGAACTTCCTCTTCAGCGCCGCCTACTCACCCTCCATATCGTTGTCTTCACCATCCTCGACCGCAGCAATTCCTACATTTTCTGCGAGCAACTGCTTCTCTTTCTCTGCCAGTCATGGCCTCGCCGTCAGAGCAGTGGCCGTTGAAGTAGAGGATGCTGAACTTGCTTTTACAACTTCAGTGAATAATGGAGCAATACCGAGCAGTCCGCCGGTCATACTTGAGAATCATGTGAAGCTAGCGGAGGTGAGGCTTTATGGGGACGTCGTTTTAAGATATGTCAGCTACAATGATCCAAACCCCAATCAAAATCCAAATTTGTTGTTCCTTCCTGGCTTCGAGCGTGTTAGCGATGAATCTTCAAACTCTTCACTGGATTTTGGAATCAGACGGTTGGATCATGCTGTTGGAAATGTTCCTGAACTCTCGAGCGCTGTGAAATATGTGAAGGACTTCACCGGTTTTCATGAATTTGCTGAGTTTACTGCAGAAGATGTGGGTACATCAGAGAGTGGCTTGAATTCCGTGGTGCTCGCCAACAACGAGGAGACTGTACTCTTACCAATGAATGAGCCAGTCTATGGCACCAAGCGTAAATCTCAAATTGAGACATATTTGGAGCACAATGAAGGAGCTGGACTTCAGCATCTCGCGCTGAAGAGTGAGGACATCTTCCGCACCCTACGGGAGATGAGGAAAAGAAGTGGTGTTGGTGGGTTTGAATTCATGCCATCACCTCCTGTCACCTACTACAGGAACCTGAAGAACAGAGTTGGTGATGTACTTTCGGACGAGCAGATAAAGGAATGTGAAGAGTTGGGGATTTTGGTTGATAGAGATGATCAAGGAACACTCCTGCAGATTTTTACAAAACCAATTGGCGACCGCCCCACTATCTTCATAGAGATCATCCAGAGGGTGGGGTGCATGCTCAAAGACGAGGAAGGGAAGGAGTACCAGAAGGGCGGCTGTGGTGGTTTTGGGAAAGGAAACTTTTCTGAGTTATTCAAATCAATTGAAGAGTATGAGAAGACGCTTGAAACGCGTCGCACTGCTTGA
modifications: MsHPPD-02 Nucleotide Sequence
notes: vector DBN11734
For B1, the Resistance evaluation ([1]; mesotrione 52.5 g ai/ha) was “Non-resistant”, the Scores ([1]; mesotrione 52.5 g ai/ha) was 100 and the “Grade 0 (classification and statistics of the grade of pesticide damage; number of plants)” value ([1]; mesotrione 52.5 g ai/ha) was 0. For the same molecule, the “Grade 1 (classification and statistics of the grade of pesticide damage; number of plants)” value ([1]; mesotrione 52.5 g ai/ha) was 0, the “Grade 2 (classification and statistics of the grade of pesticide damage; number of plants)” value ([1]; mesotrione 52.5 g ai/ha) was 0 and the “Grade 3 (classification and statistics of the grade of pesticide damage; number of plants)” value ([1]; mesotrione 52.5 g ai/ha) was 16. For the same molecule, the Resistance evaluation ([1]; mesotrione 105 g ai/ha) was “Non-resistant”, the Scores ([1]; mesotrione 105 g ai/ha) was 100 and the “Grade 0 (classification and statistics of the grade of pesticide damage; number of plants)” value ([1]; mesotrione 105 g ai/ha) was 0. The “Grade 1 (classification and statistics of the grade of pesticide damage; number of plants)” value ([1]; mesotrione 105 g ai/ha) was 0, the “Grade 2 (classification and statistics of the grade of pesticide damage; number of plants)” value ([1]; mesotrione 105 g ai/ha) was 0 and the “Grade 3 (classification and statistics of the grade of pesticide damage; number of plants)” value ([1]; mesotrione 105 g ai/ha) was 16. The Resistance evaluation [2, 4] was “Non-resistant”, the “Scores (pesticide damage)” value [2, 4] was 100 and the “Classification and statistics of the grade of pesticide damage: Grade 0 (number of plants)” value [2, 4] was 0. The “Classification and statistics of the grade of pesticide damage: Grade 1 (number of plants)” value [2, 4] was 0, the “Classification and statistics of the grade of pesticide damage: Grade 2 (number of plants)” value [2, 4] was 0 and the “Classification and statistics of the grade of pesticide damage: Grade 3 (number of plants)” value [2, 4] was 16. For the same molecule, the Resistance evaluation [2, 5] was “Non-resistant”, the “Scores (pesticide damage)” value [2, 5] was 100 and the “Classification and statistics of the grade of pesticide damage: Grade 0 (number of plants)” value [2, 5] was 0. The “Classification and statistics of the grade of pesticide damage: Grade 1 (number of plants)” value [2, 5] was 0, the “Classification and statistics of the grade of pesticide damage: Grade 2 (number of plants)” value [2, 5] was 0 and the “Classification and statistics of the grade of pesticide damage: Grade 3 (number of plants)” value [2, 5] was 16. For the same molecule, the “Classification and statistics of the grade of pesticide damage: Grade 0” value ([3]; topramezone 25 g ai/ha (1×)) was 0, the “Classification and statistics of the grade of pesticide damage: Grade 1” value ([3]; topramezone 25 g ai/ha (1×)) was 0 and the “Classification and statistics of the grade of pesticide damage: Grade 2” value ([3]; topramezone 25 g ai/ha (1×)) was 0. The “Classification and statistics of the grade of pesticide damage: Grade 3” value ([3]; topramezone 25 g ai/ha (1×)) was 16, the “Classification and statistics of the grade of pesticide damage: Grade 0” value ([3]; topramezone 100 g ai/ha (4×)) was 0 and the “Classification and statistics of the grade of pesticide damage: Grade 1” value ([3]; topramezone 100 g ai/ha (4×)) was 0. The “Classification and statistics of the grade of pesticide damage: Grade 2” value ([3]; topramezone 100 g ai/ha (4×)) was 0, the “Classification and statistics of the grade of pesticide damage: Grade 3” value ([3]; topramezone 100 g ai/ha (4×)) was 16 and the Scores ([3]; topramezone 25 g ai/ha (1×)) was 100. For the same molecule, the Scores ([3]; topramezone 100 g ai/ha (4×)) was 100, the Resistance evaluation ([3]; topramezone 25 g ai/ha (1×)) was “non-resistant (non-resistant plants (scores 68-100))” and the Resistance evaluation ([3]; topramezone 100 g ai/ha (4×)) was “non-resistant (non-resistant plants (scores 68-100))”.

B2: MsHPPDm-F372A-F383W-02: nucleotide sequence encoding Medicago sativa HPPD with F372A+F383W; vector DBN11737 (nucleic acid)
DNA: B1 DNA with T1114G, T1115C, T1116C, T1148G, C1149G
modifications: MsHPPDm-F372A-F383W-02 Nucleotide Sequence
notes: vector DBN11737
In the case of B2, the Resistance evaluation ([1]; mesotrione 52.5 g ai/ha) is reported as “Moderately”, the Scores ([1]; mesotrione 52.5 g ai/ha) is reported as 33 and the “Grade 0 (classification and statistics of the grade of pesticide damage; number of plants)” value ([1]; mesotrione 52.5 g ai/ha) is reported as 3. For the same molecule, the “Grade 1 (classification and statistics of the grade of pesticide damage; number of plants)” value ([1]; mesotrione 52.5 g ai/ha) was 10, the “Grade 2 (classification and statistics of the grade of pesticide damage; number of plants)” value ([1]; mesotrione 52.5 g ai/ha) was 3 and the “Grade 3 (classification and statistics of the grade of pesticide damage; number of plants)” value ([1]; mesotrione 52.5 g ai/ha) was 0. For the same molecule, the Resistance evaluation ([1]; mesotrione 105 g ai/ha) was “Non-resistant”, the Scores ([1]; mesotrione 105 g ai/ha) was 79 and the “Grade 0 (classification and statistics of the grade of pesticide damage; number of plants)” value ([1]; mesotrione 105 g ai/ha) was 0. The “Grade 1 (classification and statistics of the grade of pesticide damage; number of plants)” value ([1]; mesotrione 105 g ai/ha) was 0, the “Grade 2 (classification and statistics of the grade of pesticide damage; number of plants)” value ([1]; mesotrione 105 g ai/ha) was 10 and the “Grade 3 (classification and statistics of the grade of pesticide damage; number of plants)” value ([1]; mesotrione 105 g ai/ha) was 6. The Resistance evaluation [2, 4] was “Moderately”, the “Scores (pesticide damage)” value [2, 4] was 27 and the “Classification and statistics of the grade of pesticide damage: Grade 0 (number of plants)” value [2, 4] was 5. The “Classification and statistics of the grade of pesticide damage: Grade 1 (number of plants)” value [2, 4] was 9, the “Classification and statistics of the grade of pesticide damage: Grade 2 (number of plants)” value [2, 4] was 2 and the “Classification and statistics of the grade of pesticide damage: Grade 3 (number of plants)” value [2, 4] was 0. The Resistance evaluation [2, 5] was “Moderately”, the “Scores (pesticide damage)” value [2, 5] was 33 and the “Classification and statistics of the grade of pesticide damage: Grade 0 (number of plants)” value [2, 5] was 2. For the same molecule, the “Classification and statistics of the grade of pesticide damage: Grade 1 (number of plants)” value [2, 5] was 12, the “Classification and statistics of the grade of pesticide damage: Grade 2 (number of plants)” value [2, 5] was 2 and the “Classification and statistics of the grade of pesticide damage: Grade 3 (number of plants)” value [2, 5] was 0. For the same molecule, the “Classification and statistics of the grade of pesticide damage: Grade 0” value ([3]; topramezone 25 g ai/ha (1×)) was 6, the “Classification and statistics of the grade of pesticide damage: Grade 1” value ([3]; topramezone 25 g ai/ha (1×)) was 9 and the “Classification and statistics of the grade of pesticide damage: Grade 2” value ([3]; topramezone 25 g ai/ha (1×)) was 1. For the same molecule, the “Classification and statistics of the grade of pesticide damage: Grade 3” value ([3]; topramezone 25 g ai/ha (1×)) was 0, the “Classification and statistics of the grade of pesticide damage: Grade 0” value ([3]; topramezone 100 g ai/ha (4×)) was 0 and the “Classification and statistics of the grade of pesticide damage: Grade 1” value ([3]; topramezone 100 g ai/ha (4×)) was 8. The “Classification and statistics of the grade of pesticide damage: Grade 2” value ([3]; topramezone 100 g ai/ha (4×)) was 6, the “Classification and statistics of the grade of pesticide damage: Grade 3” value ([3]; topramezone 100 g ai/ha (4×)) was 2 and the Scores ([3]; topramezone 25 g ai/ha (1×)) was 23. For the same molecule, the Scores ([3]; topramezone 100 g ai/ha (4×)) was 54, the Resistance evaluation ([3]; topramezone 25 g ai/ha (1×)) was “moderately” and the Resistance evaluation ([3]; topramezone 100 g ai/ha (4×)) was “poorly”.
